According to patent US20230002480A1:

Key:
Experiment in all cases: cell-based or functional assay
[1] = biological target: HIV-1 Env of pseudovirus TRJO4551.58 (HIV-1)
[2] = biological target: HIV-1 Env of pseudovirus PVO.4 (HIV-1)
[3] = biological target: HIV-1 Env of pseudovirus ZM197M.PB7 (HIV-1)
[4] = biological target: HIV-1 Env of pseudovirus CNE53 (HIV-1)
[5] = biological target: HIV-1 Env of pseudovirus 263-8 (HIV-1)
[6] = biological target: HIV-1 Env of pseudovirus 6041.v3.c23 (HIV-1)
[7] = biological target: HIV-1 Env of pseudovirus SC05_8C11_2344 (HIV-1)
[8] = biological target: HIV-1 Env of pseudovirus ZM233M.PB6 (HIV-1)
[9] = biological target: HIV-1 Env of pseudovirus 235-47 (HIV-1)
[10] = biological target: HIV-1 Env of pseudovirus Ce1086_B2 (HIV-1)
[11] = biological target: HIV-1 Env of pseudovirus Q23.17 (HIV-1)
[12] = biological target: HIV-1 Env of pseudovirus 1056_10_TA11_1826 (HIV-1)
[13] = biological target: HIV-1 Env of pseudovirus R1166.c01 (HIV-1)
[14] = biological target: HIV-1 Env of pseudovirus 620345.c01 (HIV-1)
[15] = biological target: HIV-1 Env of pseudovirus 3103.v3.c10 (HIV-1)
[16] = biological target: HIV-1 Env of pseudovirus 6811.v7.c18 (HIV-1)
[17] = biological target: HIV-1 Env of pseudovirus 249M B10 (HIV-1)
[18] = biological target: HIV-1 Env of pseudovirus 1012_11_TC21_3257 (HIV-1)
[19] = biological target: HIV-1 Env of pseudovirus CNE8 (HIV-1)
[20] = biological target: HIV-1 Env of pseudovirus BJOX009000.02.4 (HIV-1)
[21] = biological target: HIV-1 Env of pseudovirus 9004SS_A3_4 (HIV-1)
[22] = biological target: HIV-1 Env of pseudovirus 3817.v2.c59 (HIV-1)
[23] = biological target: HIV-1 Env of pseudovirus 3301.v1.c24 (HIV-1)
[24] = biological target: HIV-1 Env of pseudovirus QH0692.42 (HIV-1)
[25] = biological target: HIV-1 Env of pseudovirus T250-4 (HIV-1)
[26] = biological target: HIV-1 Env of pseudovirus HIV-16055-2.3 (HIV-1)
[27] = biological target: HIV-1 Env of pseudovirus 211-9 (HIV-1)
[28] = biological target: HIV-1 Env of pseudovirus CNE19 (HIV-1)
[29] = biological target: HIV-1 Env of pseudovirus 1006_11_C3_1601 (HIV-1)
[30] = biological target: HIV-1 Env of pseudovirus T278-50 (HIV-1)
[31] = biological target: HIV-1 Env of pseudovirus HIV-0013095-2.11 (HIV-1)
[32] = biological target: HIV-1 Env of pseudovirus 928-28 (HIV-1)
[33] = biological target: HIV-1 Env of pseudovirus ZM135M.PL10a (HIV-1)
[34] = biological target: HIV-1 Env of pseudovirus ZM53M.PB12 (HIV-1)
[35] = biological target: HIV-1 Env of pseudovirus 191084 B7-19 (HIV-1)
[36] = biological target: HIV-1 Env of pseudovirus C2101.c01 (HIV-1)
[37] = biological target: HIV-1 Env of pseudovirus 3365.v2.c2 (HIV-1)

PGT151 (antibody) was tested, and the IC50 [1] was 0.496 µg/mL, the IC80 [1] was 4.22 µg/mL and the IC50 [2] was 0.017 µg/mL. It also gave an IC80 [2] of over 50 µg/mL, an IC50 [3] of 0.003 µg/mL and an IC80 [3] of 0.033 µg/mL. It also gave an IC50 [4] of over 50 µg/mL, an IC80 [4] of over 50 µg/mL and an IC50 [5] of over 50 µg/mL. For the same substance, the IC80 [5] was over 50 µg/mL, the IC50, titer in TZM.bl cells [6] was 0.004 µg/mL and the IC80, titer in TZM.bl cells [6] was 0.024 µg/mL. The IC50 [7] was 0.06 µg/mL, the IC80 [7] was over 50 µg/mL and the IC50 [8] was 0.027 µg/mL. For the same substance, the IC80 [8] was 5.16 µg/mL, the IC50, titer in TZM.bl cells [9] was 38.1 µg/mL and the IC80, titer in TZM.bl cells [9] was over 50 µg/mL. The IC50 [10] was 2.65 µg/mL, the IC80 [10] was over 50 µg/mL and the IC50 [11] was 0.007 µg/mL. It also gave an IC80 [11] of 0.045 µg/mL, an IC50 [12] of 0.008 µg/mL and an IC80 [12] of 0.048 µg/mL. It also gave an IC50, titer in TZM.bl cells [13] of over 50 µg/mL, an IC80, titer in TZM.bl cells [13] of over 50 µg/mL and an IC50, titer in TZM.bl cells [14] of over 50 µg/mL. The IC80, titer in TZM.bl cells [14] was over 50 µg/mL, the IC50, titer in TZM.bl cells [15] was 0.014 µg/mL and the IC80, titer in TZM.bl cells [15] was 0.202 µg/mL. For the same substance, the IC50, titer in TZM.bl cells [16] was over 50 µg/mL, the IC80, titer in TZM.bl cells [16] was over 50 µg/mL and the IC50 [17] was 0.007 µg/mL. It also gave an IC80 [17] of 0.023 µg/mL, an IC50 [18] of over 50 µg/mL and an IC80 [18] of over 50 µg/mL. The IC50, titer in TZM.bl cells [19] was over 50 µg/mL, the IC80, titer in TZM.bl cells [19] was over 50 µg/mL and the IC50, titer in TZM.bl cells [20] was over 50 µg/mL. The IC80, titer in TZM.bl cells [20] was over 50 µg/mL, the IC50 [21] was 0.003 µg/mL and the IC80 [21] was 0.015 µg/mL. It also gave an IC50, titer in TZM.bl cells [22] of over 50 µg/mL, an IC80, titer in TZM.bl cells [22] of over 50 µg/mL and an IC50, titer in TZM.bl cells [23] of 0.002 µg/mL. It also gave an IC80, titer in TZM.bl cells [23] of 0.019 µg/mL, an IC50 [24] of 0.029 µg/mL and an IC80 [24] of 0.522 µg/mL. For the same substance, the IC50 [25] was 0.005 µg/mL, the IC80 [25] was 0.014 µg/mL and the IC50 [26] was 0.143 µg/mL. The IC80 [26] was over 50 µg/mL, the IC50, titer in TZM.bl cells [27] was 0.002 µg/mL and the IC80, titer in TZM.bl cells [27] was 0.01 µg/mL. It also gave an IC50 [28] of 0.014 µg/mL, an IC80 [28] of over 50 µg/mL and an IC50 [29] of 2.89 µg/mL. It also gave an IC80 [29] of over 50 µg/mL, an IC50, titer in TZM.bl cells [30] of 0.13 µg/mL and an IC80, titer in TZM.bl cells [30] of over 50 µg/mL. The IC50 [31] was over 50 µg/mL, the IC80 [31] was over 50 µg/mL and the IC50 [32] was over 50 µg/mL. For the same substance, the IC80 [32] was over 50 µg/mL, the IC50 [33] was over 50 µg/mL and the IC80 [33] was over 50 µg/mL. The IC50 [34] was over 50 µg/mL, the IC80 [34] was over 50 µg/mL and the IC50 [35] was 0.004 µg/mL. The IC80 [35] was 0.016 µg/mL.
Work on VRC01 (antibody) yielded an IC50, titer in TZM.bl cells [1] of 0.08 µg/mL, an IC80, titer in TZM.bl cells [1] of 0.21 µg/mL and an IC50, titer in TZM.bl cells [2] of 0.22 µg/mL. The IC80, titer in TZM.bl cells [2] was 1.2 µg/mL, the IC50, titer in TZM.bl cells [3] was 0.36 µg/mL and the IC80, titer in TZM.bl cells [3] was 1.6 µg/mL. For the same substance, the IC50, titer in TZM.bl cells [5] was 0.2 µg/mL, the IC80, titer in TZM.bl cells [5] was 0.55 µg/mL and the IC50, titer in TZM.bl cells [6] was 0.02 µg/mL. The IC80, titer in TZM.bl cells [6] was 0.08 µg/mL, the IC50, titer in TZM.bl cells [7] was 0.64 µg/mL and the IC80, titer in TZM.bl cells [7] was 1.91 µg/mL. For the same substance, the IC50, titer in TZM.bl cells [8] was 2 µg/mL, the IC80, titer in TZM.bl cells [8] was 9.3 µg/mL and the IC50, titer in TZM.bl cells [9] was 0.04 µg/mL. It also gave an IC80, titer in TZM.bl cells [9] of 0.17 µg/mL, an IC50, titer in TZM.bl cells [10] of 0.42 µg/mL and an IC80, titer in TZM.bl cells [10] of 1.44 µg/mL. It also gave an IC50, titer in TZM.bl cells [11] of 0.09 µg/mL, an IC80, titer in TZM.bl cells [11] of 0.261 µg/mL and an IC50, titer in TZM.bl cells [12] of 0.92 µg/mL. The IC80, titer in TZM.bl cells [12] was 3.28 µg/mL, the IC50, titer in TZM.bl cells [13] was 1.7 µg/mL and the IC80, titer in TZM.bl cells [13] was 4.58 µg/mL. It also gave an IC50, titer in TZM.bl cells [14] of over 50 µg/mL, an IC80, titer in TZM.bl cells [14] of over 50 µg/mL and an IC50, titer in TZM.bl cells [15] of 0.93 µg/mL. It also gave an IC80, titer in TZM.bl cells [15] of 2.49 µg/mL, an IC50, titer in TZM.bl cells [36] of 0.36 µg/mL and an IC80, titer in TZM.bl cells [36] of 1.17 µg/mL. It also gave an IC50, titer in TZM.bl cells [16] of 0.09 µg/mL, an IC80, titer in TZM.bl cells [16] of 0.26 µg/mL and an IC50, titer in TZM.bl cells [17] of 0.13 µg/mL. For the same substance, the IC80, titer in TZM.bl cells [17] was 0.46 µg/mL, the IC50, titer in TZM.bl cells [18] was 0.12 µg/mL and the IC80, titer in TZM.bl cells [18] was 0.32 µg/mL. For the same substance, the IC50, titer in TZM.bl cells [37] was 0.06 µg/mL, the IC80, titer in TZM.bl cells [37] was 0.17 µg/mL and the IC50, titer in TZM.bl cells [22] was over 50 µg/mL. It also gave an IC80, titer in TZM.bl cells [22] of over 50 µg/mL, an IC50, titer in TZM.bl cells [23] of 0.14 µg/mL and an IC80, titer in TZM.bl cells [23] of 0.32 µg/mL. For the same substance, the IC50, titer in TZM.bl cells [24] was 1.5 µg/mL, the IC80, titer in TZM.bl cells [24] was 4.8 µg/mL and the IC50, titer in TZM.bl cells [25] was over 50 µg/mL. For the same substance, the IC80, titer in TZM.bl cells [25] was over 50 µg/mL, the IC50, titer in TZM.bl cells [26] was 0.08 µg/mL and the IC80, titer in TZM.bl cells [26] was 0.26 µg/mL. It also gave an IC50, titer in TZM.bl cells [27] of 14.3 µg/mL, an IC80, titer in TZM.bl cells [27] of over 50 µg/mL and an IC50, titer in TZM.bl cells [29] of 0.15 µg/mL. It also gave an IC80, titer in TZM.bl cells [29] of 0.39 µg/mL, an IC50, titer in TZM.bl cells [30] of over 50 µg/mL and an IC80, titer in TZM.bl cells [30] of over 50 µg/mL. It also gave an IC50, titer in TZM.bl cells [31] of 0.11 µg/mL, an IC80, titer in TZM.bl cells [31] of 0.33 µg/mL and an IC50, titer in TZM.bl cells [32] of 0.41 µg/mL. For the same substance, the IC80, titer in TZM.bl cells [32] was 1.7 µg/mL, the IC50, titer in TZM.bl cells [33] was 0.35 µg/mL and the IC80, titer in TZM.bl cells [33] was 2.7 µg/mL. It also gave an IC50, titer in TZM.bl cells [34] of 1.3 µg/mL and an IC80, titer in TZM.bl cells [34] of 4 µg/mL.
